Results: patent US20130052663A1 (ADDEX PHARMA SA, priority 2010, published 2013)

Columns and labels:
[1] = biological target: chimeric receptor TNFR1(fl)-PDGFR(cd): full length human TNFR1 fused to the cytoplasmic tyrosine kinase domain of mouse PDGFR (human TNFR1 / mouse PDGFR); experiment: cell-based or functional assay
Target sequence (chain, as listed by the source mutant limits assumed): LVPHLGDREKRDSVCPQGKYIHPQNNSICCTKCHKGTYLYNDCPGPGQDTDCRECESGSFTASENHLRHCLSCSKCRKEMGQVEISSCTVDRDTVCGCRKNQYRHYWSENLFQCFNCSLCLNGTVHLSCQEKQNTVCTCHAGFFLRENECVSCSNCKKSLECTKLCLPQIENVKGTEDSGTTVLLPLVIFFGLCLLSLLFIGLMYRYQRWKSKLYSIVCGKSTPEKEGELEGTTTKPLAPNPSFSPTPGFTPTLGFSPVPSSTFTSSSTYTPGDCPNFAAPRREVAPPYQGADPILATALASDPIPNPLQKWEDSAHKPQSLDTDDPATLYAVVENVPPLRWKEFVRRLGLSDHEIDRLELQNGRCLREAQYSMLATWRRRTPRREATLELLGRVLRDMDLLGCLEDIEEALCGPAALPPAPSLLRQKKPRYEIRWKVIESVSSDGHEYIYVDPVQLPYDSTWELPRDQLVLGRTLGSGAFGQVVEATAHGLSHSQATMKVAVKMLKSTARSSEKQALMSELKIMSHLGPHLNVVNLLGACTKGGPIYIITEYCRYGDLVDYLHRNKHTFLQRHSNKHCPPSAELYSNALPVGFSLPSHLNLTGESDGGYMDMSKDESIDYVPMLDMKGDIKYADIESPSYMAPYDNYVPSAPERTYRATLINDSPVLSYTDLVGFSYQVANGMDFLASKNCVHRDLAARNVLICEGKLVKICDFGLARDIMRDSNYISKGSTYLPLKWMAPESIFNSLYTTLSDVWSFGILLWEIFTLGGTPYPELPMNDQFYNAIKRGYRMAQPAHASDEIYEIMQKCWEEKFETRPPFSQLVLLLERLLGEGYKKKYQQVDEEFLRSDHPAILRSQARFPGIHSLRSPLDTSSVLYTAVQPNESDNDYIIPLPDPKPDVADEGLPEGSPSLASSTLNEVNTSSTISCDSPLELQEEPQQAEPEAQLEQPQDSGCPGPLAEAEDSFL

[2] = biological target: T1, chimeric TNFR1-PDGFR Receptor (Homo sapiens, UniProt P19438); experiment: Ca2+-dependent aequorin luminescence in HEK293T Aequorin cells expressing chimeric TNFR1(fl)-PDGFR(cd) receptor, HTS setting; type: cell-based, human TNFR1 / mouse PDGFR; conditions: for Effect on TNF-dependent intracellular calcium increase (luminescence AUC): 1 μM inhibitor, 3 ng/ml TNF
T1 construct: yielding the expression construct pcDNA3.1 hygro TNFR1(fl)-PDGFR(cd) vector; mouse PDGFRb cytoplasmic tyrosine kinase domain (fusion partner); expressed in transfected cells; host or cells: HEK293T cells stably expressing apoaequorin
From the text: HEK293T stably expressing Apoaequorin were generated using standard cloning techniques. The HEK293T cells expressing Apoaequorin (“Aequorin cells”) were then further transfected as described in Examples 1-3 so as to express the chimeric receptors 1-3 as listed in Table 3.
In particular, the HEK293T Apoaequorin cells were transfected with pcDNA3.1 hygro TNFR1-fl-PDGFR-cd vector as prepared in Example 1 using Optifect™ Transfection Reagent (Invitrogen), according to the manufacturer's protocol.
HEK293T cells expressing Apoaequorin and the chimeric receptor (Example 4) were plated in 384-well plates at a concentration of 12500 cells per well in a final volume of 50 μl. The next day culture supernatants were removed and 25 μl labeling buffer (DMEM:F12 plus 0.1% BSA) containing 2.5 μM Coelenterazine h (Dalton Pharma services), was added. Cells were incubated at room temperature for 6 hrs. A FDSS7000 reader from Hamamatsu (Japan) was used to examine intracellular calcium levels. […] The instrument features include detection with a camera of fluorescence or luminescence and automatically converts fluorescence or luminescence signals into numeric data. This digital data is then used to determine the concentration of calcium inside the analyzed cells. The information is automatically analyzed in terms of a positive, negative or null effect of each test compound being examined. This system allowed differences between untreated and treated cells to be measured, for example by measuring the calcium flux in cells.
After a baseline reading of 10 seconds, cells were incubated for 3 minutes with different doses of inhibitors or buffer controls. […] The results were analyzed using the FDSS analysis software from Hamamatsu. […]
HEK293T Aequorin cells expressing fusion proteins as described in Example 4 were treated or not treated with 3 ng/ml of TNF and 300 ng/ml of an anti-TNFR1 antagonist monoclonal antibody (MAB225, R&D Systems) was added to half of the samples exposed to TNF. Following 10 minutes of exposure after TNF addition, the area under the curve was determined for each sample. […]

T1 sequence (P19438 with tags, fused parts or gaps): as the sequence (chain, as listed by the source mutant limits assumed) above

In the case of Tumor necrosis factor (TNF) (ligand), the EC50, Ca2+-dependent aequorin luminescence, AUC over 10 minutes [1] is reported as 1.27 ng/mL, the EC50, Ca2+-dependent aequorin luminescence, Max-Min [1] is reported as 1.06 ng/mL and the EC80, Ca2+-dependent aequorin luminescence, AUC over 10 minutes [1] is reported as 2.9 ng/mL. It also gave an EC80, Ca2+-dependent aequorin luminescence, Max-Min [1] of 3 ng/mL.

With COc1cc2ncnc(N3CCN(C(=O)Nc4ccc(Oc5ccccc5)cc4)CC3)c2cc1OC [PDGFR Tyrosine Kinase Inhibitor III, 4-(6,7-Dimethoxy-4-quinazolinyl)-N-(4-phenoxyphenyl)-1-piperazinecarboxamide] the “Effect on TNF-dependent intracellular calcium increase (luminescence AUC)” value [2] was “prevented the detection of intracellular calcium increase”, the “Effect on TNF-dependent intracellular calcium increase (luminescence AUC)” value ([2]; listed as PDGFR tyrosine kinase inhibitor) was “signalling is blocked” and the “Inhibitory efficacy (dose response), compared with full-length PDGFR cells” value ([2]; inhibitor 3 μM to 0.45 nM, cells exposed to TNF) was “equal inhibitory efficacy”.
